{"source": "IntAct's records for PubMed 22878415", "parents": {"B1": {"name": "SUMO-specific isopeptidase USPL1 (Homo sapiens), Q5W0Q7 (parent)", "chain": "MMDSPKIGNGLPVIGPGTDIGISSLHMVGYLGKNFDSAKVPSDEYCPACREKGKLKALKTYRISFQESIFLCEDLQCIYPLGSKSLNNLISPDLEECHTPHKPQKRKSLESSYKDSLLLANSKKTRNYIAIDGGKVLNSKHNGEVYDETSSNLPDSSGQQNPIRTADSLERNEILEADTVDMATTKDPATVDVSGTGRPSPQNEGCTSKLEMPLESKCTSFPQALCVQWKNAYALCWLDCILSALVHSEELKNTVTGLCSKEESIFWRLLTKYNQANTLLYTSQLSGVKDGDCKKLTSEIFAEIETCLNEVRDEIFISLQPQLRCTLGDMESPVFAFPLLLKLETHIEKLFLYSFSWDFECSQCGHQYQNRHMKSLVTFTNVIPEWHPLNAAHFGPCNNCNSKSQIRKMVLEKVSPIFMLHFVEGLPQNDLQHYAFHFEGCLYQITSVIQYRANNHFITWILDADGSWLECDDLKGPCSERHKKFEVPASEIHIVIWERKISQVTDKEAACLPLKKTNDQHALSNEKPVSLTSCSVGDAASAETASVTHPKDISVAPRTLSQDTAVTHGDHLLSGPKGLVDNILPLTLEETIQKTASVSQLNSEAFLLENKPVAENTGILKTNTLLSQESLMASSVSAPCNEKLIQDQFVDISFPSQVVNTNMQSVQLNTEDTVNTKSVNNTDATGLIQGVKSVEIEKDAQLKQFLTPKTEQLKPERVTSQVSNLKKKETTADSQTTTSKSLQNQSLKENQKKPFVGSWVKGLISRGASFMPLCVSAHNRNTITDLQPSVKGVNNFGGFKTKGINQKASHVSKKARKSASKPPPISKPPAGPPSSNGTAAHPHAHAASEVLEKSGSTSCGAQLNHSSYGNGISSANHEDLVEGQIHKLRLKLRKKLKAEKKKLAALMSSPQSRTVRSENLEQVPQDGSPNDCESIEDLLNELPYPIDIASESACTTVPGVSLYSSQTHEEILAELLSPTPVSTELSENGEGDFRYLGMGDSHIPPPVPSEFNDVSQNTHLRQDHNYCSPTKKNPCEVQPDSLTNNACVRTLNLESPMKTDIFDEFFSSSALNALANDTLDLPHFDEYLFENY"}}}
{"variants_of": "B1", "details": "with sumo3_human SUMO3, P55854"}
{"variant": "L341A", "effect of a mutation on the interaction": "decreasing interaction"}
{"variant": "L340A", "effect of a mutation on the interaction": "decreasing interaction"}
{"variants_of": "B1", "details": "with sumo3_human SUMO3, P55854", "remark": "another data set of the same source"}
{"variant": "L341A", "effect of a mutation on the interaction": "disrupting interaction"}
{"variant": "L340A", "effect of a mutation on the interaction": "disrupting interaction"}
{"variants_of": "B1", "details": "with sumo3_human SUMO3, P55854", "remark": "another data set of the same source"}
{"variant": "W229L", "effect of a mutation on the interaction": "decreasing interaction"}
{"variants_of": "B1", "details": "with sumo3_human SUMO3, P55854", "remark": "another data set of the same source"}
{"variant": "W229L", "effect of a mutation on the interaction": "disrupting interaction"}
{"variants_of": "B1", "details": "with sumo3_human SUMO3, P55854", "remark": "another data set of the same source"}
{"variant": "W237F", "effect of a mutation on the interaction": "decreasing interaction"}
{"variants_of": "B1", "details": "with sumo3_human SUMO3, P55854", "remark": "another data set of the same source"}
{"variant": "W237F", "effect of a mutation on the interaction": "disrupting interaction"}
{"variants_of": "B1", "details": "with sumo3_human SUMO3, P55854", "remark": "another data set of the same source"}
{"variant": "I494A", "effect of a mutation on the interaction": "decreasing interaction"}
{"variant": "V495A", "effect of a mutation on the interaction": "decreasing interaction"}
{"variants_of": "B1", "details": "with sumo3_human SUMO3, P55854", "remark": "another data set of the same source"}
{"variant": "I494V", "effect of a mutation on the interaction": "disrupting interaction"}
{"variant": "V495A", "effect of a mutation on the interaction": "disrupting interaction"}
{"variants_of": "B1", "details": "with sumo3_human SUMO3, P55854", "remark": "another data set of the same source"}
{"variant": "H421A", "effect of a mutation on the interaction": "decreasing interaction"}
{"variants_of": "B1", "details": "with sumo3_human SUMO3, P55854", "remark": "another data set of the same source"}
{"variant": "E331A", "effect of a mutation on the interaction": "decreasing interaction"}
